The text below walks through data of patent US20070059799A1.

No end group written: not given here.

By IC50 is commonly meant the concentration needed to halve the response being measured. High values mean lower potency, low ones higher potency.

The first test concerns the target HLA-A*0301 (human). Nature of the test: competition with 125I-labelled standard peptide on purified HLA, gel filtration.
Settings: not given
(SEC sorts molecules by how far they enter the pores of the column.)
For the molecule TSAICSVVRR (modifications not checked) [HBV POL 519 10-mer peptide … (SEQ ID NO: 668)], the binding affinity ratio (IC50 of standard peptide / IC50 of test peptide) came to 0.0018.

The next test deals with HLA-A*03 (human). As to the kind of experiment: competition with 125I-labelled probe peptide for purified HLA, gel filtration.
Settings: not given
With RLVVDFSQFSR (modifications not checked) [peptide 26.0539 (HBV POL 376, …)], the IC50 is 39 nM. In other words, the double-digit nanomolar range.

Consider GVWIRTPPAYR (modifications not checked) [peptide 26.0535 (HBV X NUC FUS 299, …)], for which the IC50 came to 58 nM. Same read-out and setting: in the case of HTLWKAGILYK (modifications not checked) [peptide 1147.16 (HBV pol 149, …)] it was 20 nM.

Staying with this test, now noted: remark: other sources report otherwise.
AFTFSPTYK (modifications not checked) [peptide 20.0130 (HBV pol 655, …)] displayed an IC50 of 42 nM. The same measure, in the same setting: in the case of SVVRRAFPH (modifications not checked) [peptide 20.0131 (HBV pol 524, …)] it was 100 nM; in that of VSFGVWIR (modifications not checked) [peptide 26.0023 (HBV X NUC FUS 296, VSFGVWIR)], 2750 nM.

In a further test the target is HLA-A*3101 (human). Described as above.
Settings: not given
In the case of RLVVDFSQFSR (modifications not checked) [peptide 26.0539 (HBV POL 376, …)], the half-maximal inhibitory concentration (IC50) was 7 nM.

With GIHLNPNKTK (modifications not checked) [HBV POL 567 peptide …], the binding affinity ratio (IC50 of standard peptide / IC50 of test peptide) worked out at 0.0009. In turn, GVWIRTPPAYR (modifications not checked) [peptide 26.0535 (HBV X NUC FUS 299, …)] showed an IC50 of 3 nM. In other words, the single-digit nanomolar range.

The test is the same for the next values; noted with them: remark: other sources report otherwise.
For AFTFSPTYK (modifications not checked) [peptide 20.0130 (HBV pol 655, …)], the IC50 worked out at 3100 nM. On the same count and under the same terms, in the case of FVLGGCRHK (modifications not checked) [peptide 1.0219 (HBV X 1550, …)] it was 1500 nM; in that of SSAGPCALR (modifications not checked) [peptide 26.0153 (HBV X 64, …)], 55 nM. Still for that read-out and setting: in the case of KVFVLGGCR (modifications not checked) [peptide 1.0993 (HBV X 130, …)] it was 30 nM.

For another test, the target named is HLA-A*3301 (human). Described as above.
Settings: not given
As to GIHLNPNKTK (modifications not checked) [HBV POL 567 peptide …], the binding affinity ratio (IC50 of standard peptide / IC50 of test peptide) was 0.0009.

A further test concerns the target HLA-A*0301 (human).
Test: not given
Settings: not given
Turning to SALNPADDPSR (modifications not checked) [HBV POL 771 …], the binding affinity ratio (IC50 of standard peptide / IC50 of test peptide) was -0.0004. Same read-out and setting: in the case of RTPSPRRR (modifications not checked) [HBV NUC 188 RTPSPRRR] it was -0.0002. On the same count and under the same terms, in the case of LTVNEKRR (modifications not checked) [HBV POL 99 LTVNEKRR] it was -0.0002; in that of SSAGPCALRF (modifications not checked) [HBV X 64 …], -0.0003. The same measure, in the same setting: in the case of LVVDFSQF (modifications not checked) [HBV POL 377 LWDFSQF] it was 0.0016; in that of NLNVSIPWTHK (modifications not checked) [HBV POL 45 …], -0.0009; in that of LVPFVQWF (modifications not checked) [HBV ENV 339 LVPFVQWF], 0.0028. As to NSVVLSRK (modifications not checked) [HBV POL 738 NSVVLSRK], the binding affinity ratio (IC50 of standard peptide / IC50 of test peptide) came out at 0.0006.

With NLEDPASR (modifications not checked) [HBV NUC 75 NLEDPASR], the binding affinity ratio (IC50 of standard peptide / IC50 of test peptide) was -0.0002. The same measure, in the same setting: in the case of SAGPCALRF (modifications not checked) [HBV X 65 …] it was -0.0003.

Staying with this test, now noted: remark: other sources report otherwise.
For SAICSVVR (modifications not checked) [HBV POL 520 SAICSVVR], the binding affinity ratio (IC50 of standard peptide / IC50 of test peptide) is -0.0002.

On to SAGPCALR (modifications not checked) [HBV X 65 SAGPCALR], for which the binding affinity ratio (IC50 of standard peptide / IC50 of test peptide) was -0.0002.

In a further test the target is HLA-A*0301 (human).
Test: not given
Settings: not given
The source holds these as a separate data set.
Regarding RAFPHCLAF (modifications not checked) [HBV POL 528 peptide …], the binding affinity ratio (IC50 of standard peptide / IC50 of test peptide) was 0.0015.

For the molecule CLIFLLVLLDY (modifications not checked) [HBV ENV 253 …], the binding affinity ratio (IC50 of standard peptide / IC50 of test peptide) is 0.0083.

For VVRRRGRSPR (modifications not checked) [HBV NUC 177 peptide […] (as printed)], the binding affinity ratio (IC50 of standard peptide / IC50 of test peptide) amounted to 0.0027. The same measure, in the same setting: in the case of TSAICSVVRR (modifications not checked) [HBV POL 519 …] it was 0.0018. Still for that read-out and setting: in the case of RSPRRRTPSPR (modifications not checked) [HBV NUC 163 peptide …] it was -0.0007; in that of LSTLPETTVVR (modifications not checked) [HBV NUC 169 …], -0.0009; in that of YLPLDKGIKPY (modifications not checked) [… (HBV POL 122)], -0.0004. With SVVLSRKY (modifications not checked) [HBV POL 739 SVVLSRKY], the binding affinity ratio (IC50 of standard peptide / IC50 of test peptide) was -0.0002. On the same count and under the same terms, in the case of WLSLDVSAAFY (not fully specified) [[…] (HBV POL 414)] it was 0.0034; in that of LSWLSLDVSA (modifications not checked) [HBV POL 412 …], 0.0048; in that of GLLGFAAPF (modifications not checked) [HBV POL 627 peptide …], 0.0006.

A further test addresses HLA-A*0201 (human). As to the kind of experiment: competition with 125I-labelled standard peptide for purified HLA, gel filtration.
Settings: not given
With AICSVVRRA (modifications not checked) [HBV POL 521 peptide …], the binding affinity ratio (IC50 of standard peptide / IC50 of test peptide) is 0.0001. Still for that read-out and setting: in the case of CLGWLWGMDI (modifications not checked) [HBV NUC 23 peptide …] it was 0.0093; in that of ILLLCLIFLLV (modifications not checked) [HBV ENV 249 peptide …], 0.0056; in that of IVGLLGFAA (modifications not checked) [HBV POL 625 peptide …], 0.0009.

For the molecule CIPIPSSWA (modifications not checked) [HBV ENV 312 peptide …], the binding affinity ratio (IC50 of standard peptide / IC50 of test peptide) is 0.001. On the same count and under the same terms, in the case of CLIFLLVL (modifications not checked) [HBV ENV 253 peptide CLIFLLVL] it was 0.0002. Regarding ILLLCLIFL (modifications not checked) [HBV ENV 249 peptide … (9-mer, as printed)], the binding affinity ratio (IC50 of standard peptide / IC50 of test peptide) stood at 0.0015. For the molecule CLAFSYMDDV (modifications not checked) [HBV POL 533 peptide …], the binding affinity ratio (IC50 of standard peptide / IC50 of test peptide) is 0.0008.

Staying with this test, now noted: remark: other sources report otherwise.
For AMSTTDLEA (modifications not checked) [HBV X 102 peptide …], the binding affinity ratio (IC50 of standard peptide / IC50 of test peptide) turned out to be 0.0013.

Another test has as its target HLA-A*0201 (human).
Test: not given
Settings: not given
Take NLGNLNVSI (modifications not checked) [HBV POL 42 peptide …]: the binding affinity ratio (IC50 of standard peptide / IC50 of test peptide) was determined as 0.0047. Still for that read-out and setting: in the case of FLFILLLCL (modifications not checked) [HBV ENV 246 9-mer …] it was 0.0002; in that of LLTRILTI (modifications not checked) [HBV ENV 184 LLTRILTI], 0.0026. On the same count and under the same terms, in the case of DLNLGNLNV (modifications not checked) [HBV POL 40 9-mer …] it was 0.0004; in that of LLDYQGML (modifications not checked) [HBV ENV 260 LLDYQGML], 0.0004. The same measure, in the same setting: in the case of NLLSSNLSWL (modifications not checked) [HBV POL 406 peptide …] it was 0.0016. With FIIFLFIL (modifications not checked) [HBV ENV 243 8-mer FIIFLFIL], the binding affinity ratio (IC50 of standard peptide / IC50 of test peptide) stood at 0.0006. The same measure, in the same setting: in the case of LVSFGVWI (modifications not checked) [HBV NUC 119 peptide LVSFGVWI] it was 0.0004. Same read-out and setting: in the case of LIFLLVLL (modifications not checked) [HBV ENV 254 LIFLLVLL] it was 0.0025. Same read-out and setting: in the case of LLGCAANWI (modifications not checked) [HBV POL 752 …] it was 0.0011.

The target of the next test is HLA-A*3101 (human). Nature of the test: inhibition of 125I-labelled standard peptide binding to purified HLA.
Settings: not given
With PARDVLCLR (modifications not checked) [HBV X 11 peptide …], the binding affinity ratio (IC50 of standard peptide / IC50 of test peptide) came to 0.01. Still for that read-out and setting: in the case of PLSYQHFR (modifications not checked) [HBV POL 2 peptide PLSYQHFR] it was -0.0009.

The target of another test is HLA-A*3301 (human). The test is described as above.
Settings: not given
Consider PARDVLCLR (modifications not checked) [HBV X 11 peptide …], for which the binding affinity ratio (IC50 of standard peptide / IC50 of test peptide) was 0.018.

For PLSYQHFR (modifications not checked) [HBV POL 2 peptide PLSYQHFR], the binding affinity ratio (IC50 of standard peptide / IC50 of test peptide) was -0.0009.
